Experimental data reported in IntAct's records for PubMed 19942853.

B1: Cullin-associated NEDD8-dissociated protein 1 homolog (Saccharomyces cerevisiae), Q92325 (parent)
chain: MSLHISKLIEQYRSTKDNDLKYMLLRQNFKINDIEDELAPLVNELLLPVLVEEQDMEILNLVSFQVLPDLVLSMISDPAAAQLGWVISLICDPLLNQSMIHANRSFVLIETLRNVLQKIENSPHLDYHQPVNSSLEFISKFIVEMKRHMCDVDAAQLSHSLSESNMLIYIESLNLLLKFSFFSDAASPSVMVTLPFDILNDVFTIAQDYSATNTNESIDRITEKLLLTSTQLTHPVDLENLCPKMKYNTLAAVSRIWYKFGPIVDKLFTNRLLPVLFPPQMGEECNVEDVLEIVHNFHPYFSIRRLKDNRPLLSDSTISQLREGLFGMLSILNDSLTRTQNENDHGSDNLIDSDDGFGSDNDPEQQAYLDELVSEGYDENMYDGDTDDEDADDINVEKNDEATKDITETNKILLIFSELHYPQEERFSELLVELQTKIAINTSLIDKILSKETTELPTHNGEIADLNEILNEVKGNKPIRKNVIFCTLAHTLSLQSGSELSVLQLSIEVIDHLLVKNHSNNITRGEQFQLIKLILPHLKTNKSFIDTLKAGNFTQKIDEGVTLRTMILSLLLQLFPLDYSMLGEILPTIARYSVRDKDLGVRDLSFQLLDQILRTYYNYLIGIDWEWYKDDFYQVLQETCIKKDINTNLLLQFPPYLPHD
partner: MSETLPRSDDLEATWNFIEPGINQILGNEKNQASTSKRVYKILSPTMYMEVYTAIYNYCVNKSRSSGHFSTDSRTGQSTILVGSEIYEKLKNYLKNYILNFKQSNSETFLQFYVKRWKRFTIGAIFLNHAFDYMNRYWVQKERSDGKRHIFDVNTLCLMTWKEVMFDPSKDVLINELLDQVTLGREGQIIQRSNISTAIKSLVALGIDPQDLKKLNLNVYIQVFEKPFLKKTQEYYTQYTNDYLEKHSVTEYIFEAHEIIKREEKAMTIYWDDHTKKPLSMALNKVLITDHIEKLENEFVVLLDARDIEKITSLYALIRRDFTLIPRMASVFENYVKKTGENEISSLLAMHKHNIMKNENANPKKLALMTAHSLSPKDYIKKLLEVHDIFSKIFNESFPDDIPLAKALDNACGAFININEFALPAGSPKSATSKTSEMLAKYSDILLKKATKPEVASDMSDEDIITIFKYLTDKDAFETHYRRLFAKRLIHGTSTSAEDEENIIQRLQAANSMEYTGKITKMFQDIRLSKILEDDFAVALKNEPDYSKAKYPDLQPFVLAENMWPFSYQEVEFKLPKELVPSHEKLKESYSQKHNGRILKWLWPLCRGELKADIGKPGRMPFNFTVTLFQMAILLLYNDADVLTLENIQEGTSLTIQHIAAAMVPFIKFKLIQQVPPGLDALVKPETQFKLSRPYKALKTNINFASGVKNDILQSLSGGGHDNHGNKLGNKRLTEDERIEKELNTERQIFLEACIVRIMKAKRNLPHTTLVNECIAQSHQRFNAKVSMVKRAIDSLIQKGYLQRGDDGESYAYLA

Variants of: B1
Details: with cdc53_yeast CDC53, Q12018

| Variant | effect of a mutation on the interaction |
| --- | --- |
| M23A | disrupting interaction |
| D17A | disrupting interaction |
| D19A | disrupting interaction |
| Y22A | disrupting interaction |

Variants of: B1
Details: with cdc53_yeast CDC53, Q12018
Remark: another data set of the same source

| Variant | effect of a mutation on the interaction |
| --- | --- |
| G551A | decreasing interaction |
| N552A | decreasing interaction |
